The series in a line: label from the status in PepcDB records.
For “MKIIKRAIISLIILSLLISITMSNASASEELYYSVEYKNTATFNKLVKKKSLNVVYNIPELHVAQIKMTKMHANALANYKNDIKYINATCSTCITSEKTIDRTSNESLFSRQWDMNKITNNGASYDDLPKHANTKIAIIDTGVMKNHDDLKNNFSTDSKNLVPLNGFRGTEPEETGDVHDVNDRKGHGTMVSGQTSANGKLIGVAPNNKFTMYRVFGSKKTELLWVSKAIVQAANDGNQVINISVGSYIILDKNDHQTFRKDEKVEYDALQKAINYAKKKKSIVVAAAGNDGIDVNDKQKLKLQREYQGNGEVKDVPASMDNVVTVGSTDQKSNLSEFSNFGMNYTDIAAPGGSFAYLNQFGVDKWMNEGYMHKENILTTANNGRYIYQAGTSLATPKVSGALALIIDKYHLEKHPDKAIELLYQHGTSKNNKPFSRYGHGELDVYKALNVANQKAS”, the protein production result is “not failed”.
Then “MKIITCYKSVPDEQDIVVNNADGSLDFSRANNKISQYDLNAIEAANQLKTQLDGIQITAMSVGGNALTNAKARKDVLSRGADDLVVVVDEQLEASLPYQTATVLAAAATKQGYDLILCGDGSADLSSQQVSLLVGEILNIPAINGVNKIVSITTDSITVERELENEIETLTITLPAVIAVSTDINSPQIPSMKAILGAAKKPVQQWSVADLGLEPITPRSEQTVLAPKQKVRQRIIIEGDGDDQIAEFAEYLRKIIK”, with “failed”.
Then “MKIIVVGGGKVGKALCRSLVEEEHDVILIEENESVLNHVTKRLDIMGIVGNGANFRILEQADVQHCDIFIAITDKDEVNMVAAVLAKRMGAKETIVRVRNPEYSNTYFKDKNFLGFSLVVNPELLTARYIANMVDFPNARSVEHFVNGRVMLMEFKIVDGNNLCQMSLNQFRKRFNNIVICAIERGNELIIPDGDAVIQSGDKIFVTGKRMEMIHFHNFVKNKVIKHLMIIGAGRISYYLLNILKTTNRHLQVKVIELNPKKAELFSQEFPHIHVVQGDGTAKDILLEESAANYDAIATLTGVDEENIIASMFLETLGVQKNITKVNRTSILEIINPEQFSSIITPKSIAVDSMMHFIRGRVNAQDSNLDAMHHVANGRIETLQFEIRQTNKMAGKTLSELHFKTNVLIAAIIRNGKTIFPTGDDILEVGDKIVVITLLTNITHIYDLLKR”, with “failed”; and “MKIKFKRLDYQEQCRDQILGVFKGIDLKEPENDAQRISNPVFEIGAIKDLLLENIENLRSKQKITQGSVGIDKSLNCDILMETGTGKTFCFLECVYALHKNHHLSKFIVLTPSNAIKLGVLKSVEITREFFKSEYSNTHLESYEDIERFILASNHKCCVLVMTFSAFNKEKNTINKSCLENTNLFNGATSYMQALVSMRPIVIMDEPHRFLGDKTKKYLEQLNALLTLRFGATFKDDYNNLIYTLDSKKAFDCALVKSISVASVGESNECFLELKGIEKKEAAINYTDLENKTQSVKVKEHDNLGVVTQISALEDYIVEKITKTEIRFLNGFNLLLDQKEPFSHLLEGEQEVMLKEAIKSHFEREEGLFKKGIKALCMVFISGVNSYLSENEKPAKLALLFEKLYQQKLEEVLKKPLDENYRAYLECTREDIKKVHGGYFAKSKKEGDETKTIELILKEKEKLLSFDSDLRFIFSQWALQEGWDNPNVMTICKLAPSHSNITKLQQIGRGLRLAVNDKGERITKEHADFDFVNELVVIVPQVEGDFVGAIQQEISEHSLIKQEFSAEELEKSGVVKKGRYGFLLETLEGLGFGEKTGDENFKLTLNQNEFLEKEPELEKLKDEKYLDFEKLKDFLKDRLIGNSRVRDKNERKSEKIKINKENFKKFETLWESLNHQARIAYAIDSESLIDEIVKNINSSFNVSSKIVSVTTHKKVETMGNNAKTEIFERENACVWSLHEFISALSNKVKLSFKSVAKVLENIDENKFNEIKKNEQEGLRRLEELFLEIIYQNIKDKISYQMRETTIKNRKNDAFYDEKGEIREFLDGSLGADKYEIKNSSVREKCLYENFMQVDSEIEKDTIEESNDTKIIVFGKLPRVKIPIGLNQTYSPDFGYVVENNDKKVLLVVETKGVDKKSELRPEEERKISTAKKFFEALKKQGVNIEYKTKMEKDQLSALINEVLNRKD”, with “failed”; and “MKIKKNMIKGILLTTIVSFLAKIAADYLPSLGGEAIAMLLGILIGNTVFKDEKWMPGIKWAEKFPIEIGIALMGLTVTLRTISSLKIQGVIFILFQMMATILFVLWVGRRFIKVPSESAMLMASGNAVCGSSAIAAVAPAIRASDDQRRTAVATVSLSGVVLLFLLPVIGPNIFHGNNLLIGALIGGTVQSVGQVVGTASLVNQAVVTYATLFKMLRVILLSVVVFVFARFADRTRADEIKTDSKKVAVPWFVIVFIIFVFINSFFNLSNTVNTGAKSIANFFGIVNLAGIGLNLKWQTVKNSGQKFMIYGLVTVCFQILFAVLMINVLFG”, with “failed”.
Then “MKIKRLYLLGAWLLLGVSVSAQITSIQPQPQQVLSQARNLSLPDTYLIVGDTEANTHAVSALKTLLAGKHSDKNGFRIYIGEKGDKAIRKFARQIPNHKEGYYLAINDKEIVLAGQDGRGTFYALQTLAQLLNDNQLPVVEIKDYPSVRFRGVVEGFYGTPWSHEARLRQLKFYGENKMNTYIYGPKDDPYHSSPNWRLPYPEKEALQLQELVKVANENEVDFVWAIHPGQDIKWNQEDRDLLLAKFEKMYDLGVRSFAVFFDDISGEGTNPNKQAELLNYIDEKFVKVKPDVTPLVMCPTEYNKSWSNPKGNYLTTLGEKLNPSIQIMWTGDRVISDITKDGIAWINARIKRPAYIWWNFPVSDYVRDHLLLGPVYGNDTQIADQMSGFVTNPMEHAEASKIAIYSVAGYAWNPEKYNSEQTWKDAIRTILPSAADELEFFAAHNSDLGPNGHKYRRDESVELQPLSQRFLDSYLKNGSYTEADFNALEATFGKMVESGDVLMTNTGNRPLIVEMMPWLRQFKLLGETGQEVLAMAKAYKEGDNSLFIRKYRHVKALQQQMFQVDQTYNQNPYQPGVKTATKVIKPLIDQTFTTVTERYNKEHGTQLDAATDYMPHKLVSDVEQLRNQPLQIKTNRVLVSPANEVIKWGAGCTLTIELDQAYPGENLDIDFGKPDVAAWGQLEISADGKEWQKVDFKQEKNRITLNLKQTPVKAVRFSNVGNAEQEVYLRRFMITLDK”, with “failed”; and “MKIKVALLDKDKEYLDRLTGVFNTKYADKLEVYSFTDEKNAIESVKEYRIDVLIAEEDFNIDKSEFKRNCGLAYFTGTPGIELIKDEIAICKYQRVDVIFKQILGVYSDMAANVATISGENDKSSVVIFTSPCGGVGTSTVAAACAIAHANMGKKVFYLNIEQCGTTDVFFQAEGNATMSDVIYSLKSRKANLLLKLESCIKQSQEGVSYFSSTKVALDILEISYADIDTLIGNIQGMDNYDEIIVDLPFSLEIEKLKLLSKAWRIIVVNDGSQLSNYKFMRAYESVVLLEQNDDINIIRNMNMIYNKFSNKNSEMLSNISIKTIGGAPRYEHATVRQIIEALTKMEFFEEILQ”, with “not failed”.
As to “MKILKISLTVVVEVALIYLFSLLVGWSFMEAFFLGSLAIFGAIWLIALNINQNNNIDHTIYKTGTVKPFQMTWGPYTTGATSLTAFSFIITTIYYLPYFL”, the protein production entry is on record as “failed”.
In the case of “MKILVTSGGTSEAIDSVRSITNHSTGHLGKIITETLLSAGYEVCLITTKRALKPEPHPNLSIREITNTKDLLIEMQERVQDYQVLIHSMAVSDYTPVYMTGLEEVQASSNLKEFLSKQNHQAKISSTDEVQVLFLKKTPKIISLVKEWNPTIHLIGFKLLVDVTEDHLVDIARKSLIKNQADLIIANDLTQISADQHRAIFVEKNQLQTVQTKEEIAELLLEKIQAYHS”, the protein production entry is “not failed”.
With “MKIMIFICGEGLGHTSRCLALGKELLNAGHEIKFGAYGYSKELVEKTGYTAQEIPSEIKLVGKAGSLDLTGSIEATLKSAQLLGGPKLLKLLREFKPDVVVSDSYYLGTLAAMVLKLPVYLIINQSNMEEFFKNRGLEHHHHHH” the entry was “not failed”; with “MKINKELYSIALVLTVLFFVFSILISSVASAAQVTRIGSGSDPAIYGNKIVWTSGGVIHLYDLTSKTGTTVSSSAASHPAIYGNKLVWHDKSSGVPRLTVYDIPSGARSYITQDVGNYSFPAIYGNRIVWSANYNRSSYSYNVYMRDISTSTQVWIAQGENPEIYETKITYGYDDDDGRNIAVYDVNTKETINVHHSSQVFNPHMYGNKVIWSNFYTRSGFIQMYDLVAKKAIDVTSDNTGNTLYGSDTIDAGDDTGTHIDISGDEIVYSKSGDDQFGYAGVYVYDIPSAKSTPVYIYPRGTHTTPDIYNDTIVWGIDSSYGGVNDTGIYICDLSVTNTLPPVAEFTANTTYGAAPLVVLFTDASTGGVPTSWIWDFGHGIDSKHVMNATHTFTKPGNYTISLTAGNDAGNNKVMKPNYIVVTNPFPVANFSSNVTHGYPPLSIQFTDLSQNATGWNWDFGDGSNSTQRSPVHEYADSGIYSVNLTAINENGTDSKLTTITVMQLVGVGPYAYITNSGDNNVSVIDTTTNKVTAMIPVGNYPMGVAVTLDGKKVYVTNFFGRTISVIDATKNKVTATIPLGNSPRGVAVSPDGKRVYVPHHEVGNPSNNTTLIIDTDTNEVEATVLVGEVPFGVAVTLDGKKVYVTNLRDKTVSVIDTATNTVIATIPVGDDPCGVAISPDGKKVYVGNRGDSTVSIIDTATNTVTATVDLENSPYGIVVNPTGTKVYVAGTKKAYAAGTVDGFVSVIDTATNKVTATIPVGNSPFGVAVTPDGSKVYVANQLRDTVSVIDTSTNKVTATMNVGRNPNSFGQFIGSLQAQPIFPVANFSSNVTEGYAPLTVKFNDMSQKATSRIWDFNGDGQLDSSNINPVYIYANPGTYTVNLTVSNKNGTDSKTAAINVLTPSSSSGVSSHSSSSGG”, “failed”; with “MKINLLQYIAGFLGFIALFYGIFSLIREYHFLEIKSLEVFVLIFFGFFAITYAFTDRIMIEKPFALTFAVILFYLSLITPLPLTNKILLITGGIIETQLASRKGVKGTVYIILGILTLIYFVYAHFINLSSILSLIGIGLSSLIIVLGNRDRKVKGISYLTYPVGIPLVVYGINGFFPLSINPIFIIVGLAIVLLNLLPSKGIPSSDYDLKLDQKLCNDIQRSECKDVIQIYKKYMVYIPQHCLDKVVLCTINQNDMQNFNLVINNSLARSVAERYVDKMSPEMLYSLALLSSRKKELLELACKKGYKKACEQTKPILDMKNWDPKVWVGKEIYNYNIVDIIGVGGTSYILKGEKDGNFYALKIPLINYLNNVMDLVGESSKLIELSNKSPYIVRLYAIYADQLDVKEILGGNPEIYYNKPPMLVIELMKGGSINDVINVKELVKSEYWKKIVFITTARIAEALETIHSEGYVHCDVKPQNVLFNEKLPPNARLAYDNLKNGKIIVKLADLGSAVKAGEKPFSYTPAYVSFDLVKSTAFGGVSPMADIYALGATVYKLLTGVTLNTNVMIEAMDKFEANKDIRYLDNSLYSTRNLDLLRKYVDKNTYLFISKMVDPDPNKRPTSKEIKEFFYFRV”, “failed”.
On to “MKINWAENLRQNVHQLAESLGNLFVESFHYLALFAIGAVTAWAAVMEFLQMIEVGHIKIDDILLLFIYLELGAMVGIYFKTNHMPVRFLIYVAITALTRLLISNVSHHNPPDLGIIYLCGGILLLAFAILVVRYASSQFPSVKIEHPQRKIGAGSGEHPEVEKGEL”, for which the protein production result is reported as “failed”.
Consider “MKIPSVFMLEQQKASLQLHVKQLANEAIQKSAPSAWFEVLYAEAQGDTTQIPWAKLTPHPYLQEWLTNHQPFPSGQKALVIGCGLGDDAEALAKLGFAVTAFDISPTAIAWCGQRFPNSNVNYIVADLLAIPPQWHLAFDFVFECRNIQALPLNIRAEVITSIASVVAPDGTLLLINRVRLEHHHHHH”, for which the protein production entry is listed as “failed”.

Values taken from a protein production outcome set (Wang et al. 2014).
